According to patent US20250250357A1 (NANJING ZAIMING PHARMACEUTICAL, published 2025):
Substitutions are numbered along the chain they refer to.

B1: S009-F8-28.23 (antibody, human IgG1, kappa, V domains shown)
VH: EVQLVESGGDLVKPGGSLKLSCAASGFTFSSYAMSWVRQTPEKRLEWVATISDGGSYTYYPDNVEGRFTISRDNAKNNLYLQMSHLKSEDTAMYYCAGDRGYSYALDYWGQGTSVTVSS
VL: NIMMTQSPSSLAVSAGEKVTMSCKSSQSVLYSSNQKNYLAWYQQKPGQSPKLLIYWASTRESGVPDRFTGSGSGTDFTLTISSVQAEDLAVYYCHQYLSSLTFGAGTKLELKR
notes: human-murine chimeric antibody, human IgG1/kappa constant regions
B2: S009-F8-33.12 (antibody, human IgG1, kappa, V domains shown)
VH: EVQLQQSGAELVKPGASVKLSCTASAFNIKDYYMHWVKQRTEQGLEWIGRIDPEDGETKYAPKFQGKATITADTSSNTAYLQLSSLTSEDTAVYYCASGSGTGAMDYWGQGTSVTVSS
VL: DIVMTQSQKFMSTSVGDRVSITCKASQNVRTAVGWYQQKPGQSPKALIYLASNRHTGVPDRFTGSGSGTDFTLTISNVQSEDLADYFCLQHWNSPYTFGGGTKLVIKR
notes: as for B1
B3: S009-F8-22.23 (antibody, human IgG1, kappa, V domains shown)
VH: QVQLKQSGPGLVQPSQSLSITCTVSGFSLFSYGVHWVRQSPGKGLEWLGVIWSGGSTDYNAAFISRLSISKDNSKSQVFFKMNSLQADDTAMYYCARNGGSMITTLYYAMDYWGQGTSVTVSS
VL: DVVMTQTPLSLPVSLGDQASISCRSSQSLVHSYGNTYLHWYLQKPGQSPKLLIYKVSNRFSGVPDRFSGSGSGTDFTLKISRVEAEDLGVYFCSQSTHIPFTFGGGTKLEIKR
notes: as for B1
B4: S009-F8-29.1 (antibody, human IgG1, kappa, V domains shown)
VH: QVQLQQSGAELARPGASVKMSCKASGYTFISYTMHWVKQRPGQGLEWIGYINPSSGYTKYNQKFKDKATLTADKSSSTAYMQLNSLTSEDSAVYYCARYYSNPDYYAMDYWGQGTSVTVSS
VL: QIVLTQSPAIMSASPGEKVTITCSASSSVSYMHWFQQKPGTSPKLWIYSTSNLASGVPARFSGSGSGTSYSLTISRMEAEDAATYYCQQRSSYPLTFGGGTKLELKR
notes: as for B1
B5: S009-F8-8.22 (antibody, human IgG1, kappa, V domains shown)
VH: EVQLQQSGPELVKPGASVKMSCKASGYTFTDYIIHWVKQSHGKSLEWIAYIFPNNGGTGYNQKFRGKATLTVNKSSSTAYMELRSLTSEDSAVYYCARWRLRQYFDVWGTGTTVTVSS
VL: DIVMTQSQKFMSTIVGDRVSITCKASQNVGTAVAWYQQKPGQSPKLLIYSASNRYTGVPDRFTGSGSGTDFTLTISNMQSEDLADYFCQQYSSYPLTFGGGTKLEIKR
notes: as for B1
B6: S009-F8-32.3 (antibody, human IgG1, kappa, V domains shown)
VH: QVQLKESGPGLVAPSQSLSITCTVSGFSLSSYAISWVRQPPGKGLEWLGVIWTGGGTNYNSALKSRLSISKDNSKSQVFLKMNSLQTDDTARFYCARNNYGRLDYAMDYWGQGTSVTVSS
VL: B3 VL with S32G, Y33N, A85T, I99V, G105S
notes: as for B1
B7: S009-F8-24.14 (antibody, human IgG1, kappa, V domains shown)
VH: EFQLQQSGPELVKPGASVKISCKASGYSFTDYNMNWVKLSNGKSLEWIGVIIPNYGTSSYNQKFKGKATLTVDQSSSTAYMQLNSLTSEDSAVYYCARWDNYYGSSLDYWGQGTTLTVSS
VL: B5 VL with I14T, T72I, G100A, I106L
notes: as for B1
B8: S009-F8-36.12 (antibody, human IgG1, kappa, V domains shown)
VH: EVQLQQSGPELVKPGASVKISCKASGYTFTDYYMNWVKQSHGKSLEWIGDINPNNGGTSYNQKFKGKATLTVDKSSSTAYMELRSLTSEDSAVYYCASWGYGSSSRGYFDYWGQGTTLTVSS
VL: QIVLSQSPAILSASPGEKVTMTCRASSSVSYMHWYQQKPGSSPKPWIYATSNLASGVPARFSGSGSGTSYSLTISRVEAEDAATYYCQQWSSNPWTFGGGTKLEIKR
notes: as for B1

Key:
[1] = target: T1, human MSLN protein endogenously expressed on OVCAR3 tumor cells (human, UniProt Q13421 296-598); test: FACS on OVCAR3 cells;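 further: flow cytometry of chimeric antibody binding to OVCAR3 cells, 2 h on ice, read as cellular mean fluorescence intensity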
T1 construct: whole, on cells; endogenous expression on a tumor cell line; also called human mesothelin
Procedure: (§1) The desired cells were expanded to the logarithmic growth phase in a T-75 cell culture flask. […] After the cells from the previous step were subjected to cell counting, the cell pellet was resuspended to 2×10⁶ cells/mL in a blocking buffer of [PBS+2% (w/w) BSA] and added into a 96-well FACS reaction plate at 50 μL/well. A chimeric antibody (a sample to be tested) was added at 50 μL/well, and the plate was incubated on ice for 2 h. […] After the plate was centrifuged and washed 5 times with a PBST buffer, assay and analysis were performed by FACS (FACS CantoII, purchased from BD). Data analysis was performed by software (Flowjo) to obtain the mean fluorescence intensity (MFI) of the cells.

[2] = target: T2, human MSLN-FL-his protein (human, UniProt Q13421 296-580); test: competitive ELISA; row F8-33.12; further: test concentration or dose not given here
T2 construct: made in HEK293E cells, purified on nickel column; also called hMSLN-FL-his; human MSLN full-length protein; not shown: His tag

[3] = target: T2, human MSLN-FL-his protein; test: competitive ELISA; row F8-9.16; further: test concentration or dose not given here
[4] = target: T2, human MSLN-FL-his protein; test: SPR (Biacore), antibody captured on Protein A chip;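 further: flow cell at 25 °C, antigen injected for 240 s at five concentrations from 200 nM downward, dissociation followed up to 600 s, double-referenced, fitted with Langmuir 1:1 model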
Procedure: The flow cell was set at 25° C. The sample block was set at 16° C. Both were pretreated with the running buffer. In each cycle, first, the antibody to be tested was captured using the Protein A chip, and then a single concentration of human MSLN-FL-his protein was injected. […] The association was determined by injecting different concentrations of human MSLN-FL-his in solution for 240 s on end, wherein the flow rate was 30 μL/min, and the protein was diluted in a 1:1 dilution ratio from 200 nM (see detailed results for actual concentrations tested) to obtain 5 concentrations in total. The dissociation phase was monitored for up to 600 s and triggered by switching from the sample solution to the running buffer. The surface was regenerated by washing with 10 mM glycine solution (pH 1.5) at a flow rate of 30 μL/min for 30 s. The difference in bulk refractive index was corrected by subtracting the responses obtained from the goat anti-human Fc surface. Blank injections were also subtracted (=double reference). To calculate the apparent KD and other kinetic parameters, the Langmuir 1:1 model was used.

[5] = target: T2, human MSLN-FL-his protein; test: competitive ELISA; row F8-36.12; further: test concentration or dose not given here
[6] = target: T2, human MSLN-FL-his protein; test: competitive ELISA; row Tab021; further: test concentration or dose not given here
[7] = target: T2, human MSLN-FL-his protein; test: competitive ELISA; row F8-22.23; further: test concentration or dose not given here
[8] = target: T2, human MSLN-FL-his protein; test: competitive ELISA; row F8-28.23; further: test concentration or dose not given here
[9] = target: T2, human MSLN-FL-his protein; test: competitive ELISA; row F8-32.3; further: test concentration or dose not given here
[10] = target: T3, human MSLN-R3 protein expressed on HEK293T cells (HEK293T-hMSLN-R3) (human, UniProt Q13421 487-606); test: FACS on HEK293T-hMSLN-R3 cells;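 further: chimeric antibodies incubated with cells on ice for 2 h, binding read by flow cytometry as mean fluorescence intensity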
T3 construct: C-terminal limit uncertain
Procedure: as §1

[11] = target: T2, human MSLN-FL-his protein; test: competitive ELISA; row Tab142; further: test concentration or dose not given here
[12] = target: T2, human MSLN-FL-his protein; test: competitive ELISA; row F8-29.1; further: test concentration or dose not given here
[13] = target: T2, human MSLN-FL-his protein; test: competitive ELISA; row F8-24.14; further: test concentration or dose not given here
[14] = target: T2, human MSLN-FL-his protein; test: competitive ELISA; row F8-8.22; further: test concentration or dose not given here

T2 sequence (Q13421 other isoform, or with tags, fused parts or gaps): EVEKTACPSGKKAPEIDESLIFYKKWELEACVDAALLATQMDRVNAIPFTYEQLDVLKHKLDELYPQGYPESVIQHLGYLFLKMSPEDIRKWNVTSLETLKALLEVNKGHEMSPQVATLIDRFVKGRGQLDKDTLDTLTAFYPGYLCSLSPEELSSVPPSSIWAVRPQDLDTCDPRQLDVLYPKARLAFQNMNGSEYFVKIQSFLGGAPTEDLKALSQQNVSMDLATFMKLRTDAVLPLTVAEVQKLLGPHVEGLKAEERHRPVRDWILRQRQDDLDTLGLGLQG
T1 sequence (Q13421 other isoform, or with tags, fused parts or gaps): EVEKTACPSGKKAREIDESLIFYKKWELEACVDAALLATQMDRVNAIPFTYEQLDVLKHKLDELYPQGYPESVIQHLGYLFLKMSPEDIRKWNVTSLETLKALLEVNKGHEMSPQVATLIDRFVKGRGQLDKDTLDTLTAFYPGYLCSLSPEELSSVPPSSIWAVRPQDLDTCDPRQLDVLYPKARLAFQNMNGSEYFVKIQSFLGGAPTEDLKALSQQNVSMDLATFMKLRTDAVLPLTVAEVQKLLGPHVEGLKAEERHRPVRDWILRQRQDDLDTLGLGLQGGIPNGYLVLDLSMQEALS
T3 sequence (Q13421 495-614): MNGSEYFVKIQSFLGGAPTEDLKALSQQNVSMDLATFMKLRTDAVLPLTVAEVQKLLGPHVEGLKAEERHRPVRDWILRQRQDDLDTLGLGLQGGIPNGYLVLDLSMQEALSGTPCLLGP

Row | Binder | EC50 [1] [nM] | Maximum mean fluorescence intensity [1] | competition rate [2] [%] | competition rate [3] [%] | Kd [4] [nM] | koff [4] [s⁻¹] | kon [4] [M⁻¹ s⁻¹] | competition rate [5] [%] | competition rate [6] [%] | competition rate [7] [%] | competition rate [8] [%] | competition rate [9] [%] | Maximum mean fluorescence intensity [10] | binding result [10] | competition rate [11] [%] | competition rate [12] [%] | competition rate [13] [%] | competition rate [14] [%] | EC50 [10] [nM]
1 | B1 | 59.8 | 1290 | 10 | -39.8 | 44 | 0.00843 | 192000 | -79.5 | 7.7 | 38.6 | 73.4 | 22.9 | 51 | no binding | 9.8 | 18.8 | 33.6 | 24.9 | –
2 | B2 | 28.4 | 2410 | 62.8 | -89.6 | 5.77 | 0.0361 | 6.27e+06 | -134 | 9.4 | 96.6 | 102 | 84.9 | 64 | no binding | 47.9 | 70.6 | 95.5 | 96 | –
3 | B3 | 12.8 | 5500 | 60.3 | -158 | 6.35 | 0.00275 | 433000 | -156 | 11.4 | 95.7 | 100 | 85.4 | 404 | – | 46.4 | 70 | 92.4 | 94 | –
4 | B4 | 33.4 | 5430 | 47.3 | -37.3 | 27.4 | 0.0199 | 728000 | -146 | 11.1 | 88.5 | 96 | 75.8 | 69 | no binding | 36.8 | 62.2 | 89.8 | 88.4 | –
5 | B5 | 9.9 | 4270 | 53.5 | -52.1 | 12.8 | 0.00937 | 732000 | -138 | 12.6 | 96.1 | 97.4 | 77.7 | 122 | no binding | 33.8 | 59.2 | 91.1 | 92.2 | –
6 | B6 | 14.7 | 8270 | 56.5 | -113 | 6.5 | 0.00331 | 510000 | -164 | 10.9 | 96.6 | 102 | 79.3 | 50 | no binding | 40.6 | 65.9 | 95 | 94.4 | –
7 | B7 | 11.5 | 4700 | 27.8 | -65.5 | 9.13 | 0.00501 | 549000 | -142 | 5.3 | 80.3 | 95 | 57.6 | 82 | no binding | 22.9 | 43.7 | 77 | 74.5 | –
8 | B8 | 15.2 | 2510 | 8.3 | -47.7 | 103 | 0.0122 | 118000 | 61.5 | 6.4 | -3.1 | -10.7 | 9.8 | 7970 | – | 17.4 | 9.4 | 10.3 | 5.9 | 11
